Measured values taken from patent publication CN115746131A.

Legend:
[1] = biological target: 类风湿因子RF in clinical false-positive serum samples 9233354 (RF1) and 9233353 (RF2); assay: cell-based or functional assay
[2] = biological target: 天然类风湿因子RF (natural rheumatoid factor; 北京霍尔姆斯(Holmes)生物技术有限公司, 货号HA129AN); assay: indirect ELISA, RF coated, ascites diluted 1:100
[3] = biological target: 天然类风湿因子RF (natural rheumatoid factor; 北京霍尔姆斯(Holmes)生物技术有限公司, 货号HA129AN); assay: indirect ELISA, RF coated, ascites diluted 1:500
[4] = biological target: 天然类风湿因子RF (natural rheumatoid factor; 北京霍尔姆斯(Holmes)生物技术有限公司, 货号HA129AN); assay: indirect ELISA, RF coated, ascites diluted 1:2500
[5] = biological target: 天然类风湿因子RF (natural rheumatoid factor; 北京霍尔姆斯(Holmes)生物技术有限公司, 货号HA129AN); assay: indirect ELISA, RF coated, ascites diluted 1:12500
[6] = biological target: 天然类风湿因子RF (natural rheumatoid factor; 北京霍尔姆斯(Holmes)生物技术有限公司, 货号HA129AN); assay: indirect ELISA, RF coated, ascites diluted 1:62500
[7] = biological target: 天然类风湿因子RF (natural rheumatoid factor; 北京霍尔姆斯(Holmes)生物技术有限公司, 货号HA129AN); assay: indirect ELISA, RF coated, ascites diluted 1:312500
[8] = biological target: 天然类风湿因子RF (natural rheumatoid factor; 北京霍尔姆斯(Holmes)生物技术有限公司, 货号HA129AN); assay: indirect ELISA, RF coated, ascites diluted 1:1562500

干扰的影响降低 (免疫胶体金平台) [1]: 10 倍
ELISA read-out at ascites dilution 100 [2]: 2.01
ELISA read-out at ascites dilution 500 [3]: 1.82
ELISA read-out at ascites dilution 2500 [4]: 1.52
ELISA read-out at ascites dilution 12500 [5]: 1.17
ELISA read-out at ascites dilution 62500 [6]: 0.715
ELISA read-out at ascites dilution 312500 [7]: 0.461
ELISA read-out at ascites dilution 1562500 [8]: 0.195
B1: 单克隆抗体anti-blocker-MAB7 (A3-2) (antibody, V domains shown)
VH: VKLQQSGPGLVKPSQSLSLTCTVTGYSITSDYAWNWIRQFPGNKLEWMGYISYSGSTSYNPSLQSRISITRDTSKNQFFLQLNSVTTEDTATYYCARLANWVFDYWGQGTTLTVSS
VL: DIQMTQSPASLSVSVGETVTITCRASENIYSFLAWYQQKQGKSPQLLVYAATNLADGVPSRFSGSGSGTQYSLKINSLQYEDFGSYYCQHFRGTPYTFGGGTRL
